In this data set the test system is MS2 coat protein. Briefly: apparent KD of MS2 coat protein; designed switch direction (-1 OFF switch, 1 ON switch): -1; higher = weaker reporter binding. The essentials: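 Designed RNA switches with common flanks were transcribed on Illumina chips by stalled E. coli RNA polymerase and titrated with SNAP-549-labelled MS2 coat protein, from 0.7 or 1.5 nM doubling to 3 µM, in Tris-HCl pH 7.5 buffer with KCl, MgCl2, BSA, DTT, tRNA and Tween-20. Steps lasted 0.8–1.5 h (lowest) to 10–20 min (highest). Titrations ran without input, with 200 uM small-molecule ligand, or with an oligonucleotide input. Normalised cluster fluorescence was curve-fitted, and apparent KD is the per-design median over clusters.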

The mark [1] stands for this setting: Eterna round: R95, input ligand: FMN 200 uM.
Setting [2] is: Eterna round: R95, input ligand: microRNA oligo, concentration not stated.
Setting [3] is: Eterna round: R95, input ligand: none.
Setting [4] is: input ligand: microRNA oligo, concentration not stated.

Consider “GGCCCGGGAGGAUAUACAUGAGGAUCACCCAUGUAGCCCGGCCCGAUCGGGCCGGGCUGUAGAAGGCCCGGGCC [-49.2, -46.3 kcal, 19% A] (Eterna round: R97, puzzle: Exclusion 3)”, for which the “apparent KD of MS2 coat protein” value came to 16.9 nM (input ligand: FMN 200 uM) and 13 nM (input ligand: none).

On to “AUACCAUGCCGCCUAAUAGCUUUUUGCUCGUCUUAUAAAACAUGAGGAUCACCCAUGUAAAACUCGUGGCGUGACCC [Leorbixe] (puzzle: Sensor v3, turn-off variant 2)”, for which the “apparent KD of MS2 coat protein” value under setting [1] is 77 nM, the “apparent KD of MS2 coat protein” value under setting [2] came to 19.9 nM and the “apparent KD of MS2 coat protein” value under setting [3] was 60.8 nM.

“AGACGGUGAGGAUAUAGACGCAAUCACAUGAGGAUCACCCAUGUGACACGUGAUGGCUGGUUAGAAGGCGCGAAUC [Eternabot (L1) Solution 37] (Eterna round: R97, puzzle: Exclusion 5)”: the “apparent KD of MS2 coat protein” value (input ligand: FMN 200 uM) was 17.1 nM and the “apparent KD of MS2 coat protein” value (input ligand: none) amounted to 17.4 nM.

For the sequence “GAGGAGCAAGGAUAUACGAGGAGAGGGAAGAGAGGAGAGAGACAUGAGGAUCACCCAUGUAGAAGGUGCAAGGA [JR_Exclu2_Sub092] (puzzle: Exclusion 2)”, the “apparent KD of MS2 coat protein” value was 46 nM under setting [1], 35.4 nM under setting [2] and 43.8 nM under setting [3].

As for “UUAUACGUUGAGGAUAUGUCAGUUAGUAUAUUUACAGAAGGCGAUACAUGAGGAUCACCCAUGUUUAUGGGCAU [Ex-6 Malc#3] (puzzle: Exclusion 6)”, the “apparent KD of MS2 coat protein” value under setting [2] came to 127 nM.

Consider “UCCUCCUAAGGAUAUGCGUCGGUUGAACUAUGCUAAAAGGGACAUGAGGAUCACCCAUGUAGAAGGUAGGGCAG [Eternabot (L2) Solution 86] (Eterna round: R97, puzzle: Exclusion 2)”, for which the “apparent KD of MS2 coat protein” value was 72.5 nM (input ligand: FMN 200 uM) and 48.8 nM (input ligand: none).

For “AGAUCACAUGAGGAUCACCCAUGUCAGGAUAUGAUACUAUGUACUUCGGUACAUAGUAUCAGAAGGGACAUAAA [Ex1-3: 69] (puzzle: Exclusion 1)”, the “apparent KD of MS2 coat protein” value reads like this: under setting [1], 31.5 nM; under setting [2], 140 nM; under setting [3], 89.2 nM.

Consider “CCUGUGCUAUAGGAUAUGGCUUAGCAAUAUGCGCCAGAAGGAUAGACAUGAGGAUCACCCAUGUACGACGAAGC [Eternabot (L2) Solution 65] (Eterna round: R97, puzzle: Exclusion 6)”, for which the “apparent KD of MS2 coat protein” value was found to be 35.9 nM (input ligand: FMN 200 uM) and 24.3 nM (input ligand: none).

Turning to “CUCGGACAUGAGGAUCACCCAUGUGAGGAUAUGGUGCUAUCGUCAUUAGACGAUUGCGUUAGAAGGCAUAUUUU [LRO-Excl1-30] (puzzle: Exclusion 1)”, the “apparent KD of MS2 coat protein” value under setting [2] came out at 24.4 nM.

As to “GUGUACAGAGGAUAUACACGAAUCUAGCGAAGCUAGGUUUGACAUGAGGAUCACCCAUGUAGAAGGCUGUACAC [Dot plot directed A detuned for Vienna 1] (puzzle: Exclusion 2)”, the “apparent KD of MS2 coat protein” value under setting [2] amounted to 16.7 nM.

“UUGGAUGUUGAGGAUAUGCUGGUGUUUAUUAUAGCAGAAGGCGAUACAUGAGGAUCACCCAUGUUCAUGGCUUU [JR_E6_Sub100] (puzzle: Exclusion 6)”: the “apparent KD of MS2 coat protein” value under setting [2] is 12.4 nM.

Turning to “CAAACCAGAGGAUAUGCGCAUAGAUCAGACUUUGUUUCUGAACAUGAGGAUCACCCAUGUAGAAGGCUGUAAAA [Ex2 #83] (Eterna round: R97, puzzle: Exclusion 2)”, the “apparent KD of MS2 coat protein” value is 28.1 nM (input ligand: FMN 200 uM) and 29.7 nM (input ligand: none).

In the case of “UUACCCUGAGGAUAUCCACCGUGAUACAUGAGGAUCACCCAUGUUAAUGCCUGAGUUCCCGGAGAAGGCAGAUUCC [Megrez] (Eterna round: R97, puzzle: Exclusion 5)”, the “apparent KD of MS2 coat protein” value reads like this: (input ligand: FMN 200 uM) 35.3 nM; (input ligand: none) 33.4 nM.

As for “CCGCUCCGUGUAGGAUAUCGCUGUACCCUGCGGCGAGAAGGACAUGAGGAUCACCCAUGUAUGUUAUUAUCACGCGUGGCGCAC [Design 72] (Eterna round: R96, puzzle: Exclusion NG 1)”, the “apparent KD of MS2 coat protein” value is, setting by setting: (input ligand: FMN 200 uM) 16 nM; under setting [4], 12.4 nM; (input ligand: none) 16.4 nM.

Turning to “AGUAUGUCAGGAUAUCUCGGGUAGUCGACAACGGCUACCGAAGAGAAGGGACAUGAGGAUCACCCAUGUACCAU [EX4 B.26] (Eterna round: R97, puzzle: Exclusion 4)”, the “apparent KD of MS2 coat protein” value by setting is: (input ligand: FMN 200 uM) 28.3 nM; (input ligand: none) 24.9 nM.

Regarding “ACAUGAGGAUCACCCAUGUCCGGCUGGUCUGUCUCGGCUGUCGAGGAUAUAGCACGGUAUCCGCGCUAGAAGGCGGGAGCCGGC [Aenatbe mod 89] (Eterna round: R96, puzzle: Exclusion NG 3)”, the “apparent KD of MS2 coat protein” value runs as follows: (input ligand: FMN 200 uM) 99.5 nM; under setting [4], 34.6 nM; (input ligand: none) 47.4 nM.

For the sequence “AAGAAACAUGAGGAUCACCCAUGUGAGGAUAUGGCCCGCCCGGCGUGAGCUGGUUUUGUCAGAAGGCACAAAGG [salish99_ex1_r4_017] (Eterna round: R97, puzzle: Exclusion 1)”, the “apparent KD of MS2 coat protein” value (input ligand: FMN 200 uM) was 104 nM and the “apparent KD of MS2 coat protein” value (input ligand: none) amounted to 41.9 nM.

Take “GCCUUAUCCGUCAGGAUAUACAGCCGCUCCUUGUUGUAGAAGGGACAUGAGGAUCACCCAUGUACGUACCAUUG [alecazam5] (Eterna round: R97, puzzle: Brourd's mod of Exclusion 4)”: the “apparent KD of MS2 coat protein” value (input ligand: FMN 200 uM) came out at 25.4 nM and the “apparent KD of MS2 coat protein” value (input ligand: none) was 24.7 nM.

As for “GACUAGGCAGGAUAUACAUGAGGAUCACCCAUGUGUCUGCGUUAAGCACGUGAAGACGGUAGAAGGGCCUACAC [ChP 13.04.2015 #18] (puzzle: Exclusion 3)”, under setting [2], the “apparent KD of MS2 coat protein” value is 13 nM.

Consider “AAAGUUCGAGGAUAUCUACUUAGCUACAUGAGGAUCACCCAUGUUAUCCUCCCGCUGGGAAGAGAAGGCGGUUAAA [Xeonceso] (puzzle: Exclusion 5)”, for which the “apparent KD of MS2 coat protein” value runs as follows: under setting [1], 186 nM; under setting [2], 41.7 nM; under setting [3], 41.7 nM.

With “ACUAGAUGAGGAUAUGCAUAUUUUCGUGUUCUUCUAGGUUAACAUGAGGAUCACCCAUGUAGAAGGCGUCUAUC [Exclusion 2 - 25] (puzzle: Exclusion 2)”, the “apparent KD of MS2 coat protein” value under setting [2] came out at 21.6 nM.

Regarding “UCAUGUUUAGAGGAUAUGAUUACUCUAGAGUGAUCAGAAGGCUAGACAUGAGGAUCACCCAUGUCAGAACAUGA [Exclusion 6 - B - 16:b] (puzzle: Exclusion 6)”, the “apparent KD of MS2 coat protein” value is 95.4 nM under setting [1], 47.6 nM under setting [2] and 46.5 nM under setting [3].

As to “CAGGGUAGAGGAUAUACGUAGGUACAGAUCUGUGUGAUCCUACAUGAGGAUCACCCAUGUAGAAGGCUAGCCUG [LRO-Excl2-07] (puzzle: Exclusion 2)”, the “apparent KD of MS2 coat protein” value under setting [2] turned out to be 305 nM.

Turning to “CUUUUGUGAGGAUAUUAGUAGUAAAUUAAUAAAAUUACUACUGAGAAGGCACAUGAGGAUCACCCAUGUUCCUC [salish99_ex4_r3_054] (puzzle: Exclusion 4)”, the “apparent KD of MS2 coat protein” value under setting [2] is 39.7 nM.

Take “AUAAGCUUUGAUAUCCUUAACAUGAGGAUCACCCAUGUUCGUCUUAUGAUGGUCUGAUCCCUGAGGAUCGGACCGUU [JL-sv1-2.06 Brourd Mod] (puzzle: Sensor v3, turn-off variant 1)”: the “apparent KD of MS2 coat protein” value runs as follows: under setting [1], 34.4 nM; under setting [2], 88.4 nM; under setting [3], 33.1 nM.

The record behind these values is the supplement of paper PMC9170038.
